The text below walks through data of PMC6009595.

The target in the series is H-NS (Salmonella enterica serovar Typhimurium …, UniProt A0A0F6B244 1-137). Nature of the series: fluorescence anisotropy. In general terms: Fluorescence polarisation rises when a labelled molecule tumbles more slowly, as on binding a larger partner.
Sequence of H-NS (A0A0F6B244 whole entry): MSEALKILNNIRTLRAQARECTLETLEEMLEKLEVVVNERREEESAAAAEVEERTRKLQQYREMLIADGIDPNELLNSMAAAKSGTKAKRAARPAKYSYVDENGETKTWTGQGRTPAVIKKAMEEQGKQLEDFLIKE

B1: 36 bp pagC high-affinity H-NS site (HAhnsBS) (dsDNA)
DNA 1: ATGGGTTTTATAGCGAAATAGACTTTTTTATCGCGT
DNA 2: ACGCGATAAAAAAGTCTATTTCGCTATAAAACCCAT
As to B1, the binding result is “binds”.
